In patent US20260373285 (published 2026):
Substitutions are numbered along the chain they refer to.

T1: human Trop-2 (His) (human, UniProt P09758)
T1 chain: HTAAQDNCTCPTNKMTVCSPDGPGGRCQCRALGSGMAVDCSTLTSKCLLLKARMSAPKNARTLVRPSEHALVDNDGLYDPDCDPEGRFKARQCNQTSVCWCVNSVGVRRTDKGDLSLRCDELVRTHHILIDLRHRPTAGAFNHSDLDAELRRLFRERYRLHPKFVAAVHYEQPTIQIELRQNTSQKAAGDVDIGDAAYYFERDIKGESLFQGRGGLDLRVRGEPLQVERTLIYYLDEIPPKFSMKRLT

B1: PD-L1-1.168.15-z14-uIgG1K (antibody)
chain 1: not shown
chain 2: DIQMTQSPSFLSASVGDRVTITCKASQNVHTSLAWYQQKPGKSPKALIYLASNRHTGVPSRFSGSGSGTEFTLTISSLQPEDFATYFCLQHWNYPLTFGQGTKLEIKRTVAAPSVFIFPPSDEQLKSGTASVVCLLNNFYPREAKVQWKVDNALQSGNSQESVTEQDSKDSTYSLSSTLTLSKADYEKHKVYACEVTHQGLSSPVTKSFNRGEC
B2: PD-L1-1.168.15-z15-uIgG1K (antibody)
chain 1: not shown
chain 2: B1 chain 2
B3: PD-L1-1.168.15-z8-uIgG1K (antibody)
chain 1: not shown
chain 2: B1 chain 2 with M4L, F87Y
B4: PD-L1-1.168.15-z7-uIgG1K (antibody)
chain 1: not shown
chain 2: B1 chain 2 with M4L, F87Y
B5: PD-L1-1.168.15-z9-uIgG1K (antibody)
chain 1: not shown
chain 2: B1 chain 2 with M4L
B6: PD-L1-1.168.15-z10-uIgG1K (antibody)
chain 1: not shown
chain 2: B1 chain 2 with F87Y
B7: PD-L1-1.168.15-z13-uIgG1K (antibody)
chain 1: not shown
chain 2: B1 chain 2 with M4L
B8: PD-L1-1.168.15-z12-uIgG1K (antibody)
chain 1: not shown
chain 2: B1 chain 2 with F87Y
B9: Trop-2-YC-82hz-4 (antibody, V domains shown)
VH: EVQVVESGGGLVQPGGSLRLSCAASGYIFSNSGMGWYRQAPGQGLELVAAISSGGTTHYADSVKGRFTISRDNSKNTLYLQMNSLRAEDTAVYYCNGDRYYSGTDVFGSWGQGTLVTVSS
B10: Trop-2-YC-82hz-1 (antibody, V domains shown)
VH: B9 VH with A24T, Q43K, L78V
B11: Trop-2-YC-82hz-5 (antibody, V domains shown)
VH: B9 VH with D61Q
B12: Trop-2-YC-82hz-2 (antibody, V domains shown)
VH: B9 VH with A24T, Q43K, G44Q, L45R, L78V
B13: Trop-2-YC-82hz-3 (antibody, V domains shown)
VH: B9 VH with Q43K, D61Q, L78V, A87P
B14: PD-L1-1.168.15-z1-uIgG1K (antibody, V domains shown)
VH: EVQLVQSGAEVKKPGATVKISCKVSGFNIEDTYIYWVQQAPGKGLEWMGWIDPANYNTKYDPRFQDRVTITADTSTDTAYMELSSLRSEDTAVYYCARGLRLLMDYWGQGTTVTVSS
VL: DIQLTQSPSFLSASVGDRVTITCKASQNVHTSLAWYQQKPGKSPKLLIYLASNRHTGVPSRFSGSGSGTEFTLTISSLQPEDFATYYCLQHWNYPLTFGQGTKLEIKR
B15: PD-L1-1.168.15-z18-uIgG1K (antibody, V domains shown)
VH: B14 VH with I20L, M48I, I70V, A72V, D77N
VL: B14 VL with L4M, L46A, Y87F
B16: PD-L1-1.168.15-z0-uIgG1K (antibody, V domains shown)
VH: B14 VH
VL: B14 VL with S43A
B17: PD-L1-1.168.15-z5-uIgG1K (antibody, V domains shown)
VH: B14 VH
VL: B14 VL with L46A
B18: PD-L1-1.168.15-z2-uIgG1K (antibody, V domains shown)
VH: B14 VH
VL: B14 VL with S43A, L46A
B19: PD-L1-1.168.15-z202-uIgG1K (antibody, V domains shown)
VH: EVQLQQSGAELVKPGASVKLSCTVSGFNIEDTYIYWVKQRPEQGLEWIGWIDPANYNTKYDPRFQDKATVTVDTSSNTAYMHLSSLTSEDTAVYYCARGLRLLMDYWGQGTSVTVSS
VL: B14 VL with L4M, L46A, Y87F
B20: PD-L1-1.168.15-z201-uIgG1K (antibody, V domains shown)
VH: B14 VH with I20L, M48I, I70V, A72V, D77N
VL: DIVMTQSQKFMSSSVGDRVSITCKASQNVHTSLAWYQQRPGQSPKALIYLASNRHTGVPDRFTGSGSGTDFTLTISNVQSEDLADYFCLQHWNYPLTFGAGTKLELRR
B21: PD-L1-1.168.15-z16-uIgG1K (antibody, V domains shown)
VH: B14 VH with M48I, A72V, D77N
VL: B14 VL with L4M, L46A, Y87F
B22: PD-L1-1.168.15-z17-uIgG1K (antibody, V domains shown)
VH: B14 VH with I70V, A72V, D77N
VL: B14 VL with L4M, L46A, Y87F
B23: PD-L1-1.168.15-z6-uIgG1K (antibody, V domains shown)
VH: B14 VH with A72V
VL: B14 VL with S43A, L46A

Assays:
hPD-L1(ECD)-His = hPD-L1(ECD)-His (human, UniProt Q9NZQ7); test: SPR supernatant
human Trop-2 (His) = molecular target: T1, human Trop-2 (His); test: SPR

hPD-L1(ECD)-His, sequence (Q9NZQ7 19-238): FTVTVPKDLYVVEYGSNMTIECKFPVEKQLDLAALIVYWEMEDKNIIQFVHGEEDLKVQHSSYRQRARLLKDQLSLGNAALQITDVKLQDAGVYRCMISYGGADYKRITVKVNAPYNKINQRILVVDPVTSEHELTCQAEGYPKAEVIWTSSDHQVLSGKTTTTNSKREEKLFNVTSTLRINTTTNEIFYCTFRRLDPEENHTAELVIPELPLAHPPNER

Row | Binder | Kd (hPD-L1(ECD)-His) | Kd (human Trop-2 (His))
1 | B1 | 1.07 nM | 
2 | B2 | 1.19 nM | 
3 | B3 | 1.13 nM | 
4 | B4 | 1.01 nM | 
5 | B5 | 0.915 nM | 
6 | B6 | 0.995 nM | 
7 | B7 | 1.04 nM | 
8 | B8 | 1.13 nM | 
9 | B9 |  | 75.1 nM
10 | B10 |  | 38.1 nM
11 | B11 |  | 76.5 nM
12 | B12 |  | 23.8 nM
13 | B13 |  | 48.2 nM
14 | B14 | 1.09 nM | 
15 | B15 | 1.86 nM | 
16 | B16 | 1.29 nM | 
17 | B17 | 1.24 nM | 
18 | B18 | 1.4 nM | 
19 | B19 | 0.501 nM | 
20 | B20 | 0.844 nM | 
21 | B21 | 1 nM | 
22 | B22 | 1.67 nM | 
23 | B23 | 0.998 nM | 
